Measurements: PMC6479498 (Molecules, 2019)

Assays:
CC(=O)C(=O)O = experiment: purified protein; assay type: biochemical, Aspergillus terreus; settings: 2.5 mM (R)-α-MBA, 0.1 mM PLP, 0.25% DMSO, 50 mM sodium phosphate pH 8.0
C[C@@H](N)c1ccccc1 = experiment: purified protein; assay type: biochemical, Aspergillus terreus; settings: 2.5 mM pyruvate, 0.1 mM PLP, 0.25% DMSO, 50 mM sodium phosphate pH 8.0
[1] = biological target: T1, AT-ATA (WT-AT), (R)-selective amine transaminase (Aspergillus terreus, UniProt Q0C8G1); experiment: acetophenone formation at […] nm; assay type: biochemical; settings: 2.5 mM (R)-α-MBA, 0.1 mM PLP, 0.25% DMSO, 50 mM sodium phosphate pH 8.0; read-out: Km^pyruvate
T1 construct: gene ATEG_10023
T1 sequence (Q0C8G1 1-325): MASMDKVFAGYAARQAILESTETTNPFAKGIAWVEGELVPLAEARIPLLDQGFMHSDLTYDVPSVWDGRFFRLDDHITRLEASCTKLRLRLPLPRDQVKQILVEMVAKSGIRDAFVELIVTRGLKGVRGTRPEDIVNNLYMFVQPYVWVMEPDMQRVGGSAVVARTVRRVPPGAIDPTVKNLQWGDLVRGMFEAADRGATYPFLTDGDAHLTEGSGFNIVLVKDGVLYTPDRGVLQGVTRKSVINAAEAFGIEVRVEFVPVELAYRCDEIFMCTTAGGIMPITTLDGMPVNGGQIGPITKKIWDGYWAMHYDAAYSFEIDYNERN

Row | Molecule | Km (CC(=O)C(=O)O) [µM] | kcat (CC(=O)C(=O)O) [s⁻¹] | kcat/Km (CC(=O)C(=O)O) [M⁻¹ s⁻¹] | Km (C[C@@H](N)c1ccccc1) [µM] | kcat (C[C@@H](N)c1ccccc1) [s⁻¹] | kcat/Km (C[C@@H](N)c1ccccc1) [M⁻¹ s⁻¹] | Km [1] [µM]
1 | AT-ATA (WT-AT), (R)-selective amine transaminase (Aspergillus terreus NIH2624; L118I) | 280 ± 20 | 0.82 ± 0.01 | 2950 | 130 ± 10 | 0.82 ± 0.01 | 6400 | –
2 | CC(=O)C(=O)O [pyruvate] | – | – | – | – | – | – | 230 ± 20
3 | AT-ATA (WT-AT), (R)-selective amine transaminase (Aspergillus terreus NIH2624; L118V) | 290 ± 20 | 0.51 ± 0.01 | 1760 | 160 ± 10 | 0.57 ± 0.01 | 3570 | –
4 | AT-ATA (WT-AT), (R)-selective amine transaminase (Aspergillus terreus NIH2624; L118A) | 360 ± 50 | 1.48 ± 0.05 | 4150 | 180 ± 10 | 1.46 ± 0.01 | 7930 | –
5 | AT-ATA (WT-AT), (R)-selective amine transaminase (Aspergillus terreus NIH2624; L118T) | 400 ± 20 | – | – | 180 ± 10 | 1.79 ± 0.02 | 9980 | –
